Numbering of substitutions follows the chain as printed.
B1: ePGDM9 (antibody, V domains shown)
VH: QAQLVQSGPEVRKPGTSVKVSCKNPGNTLTTYDLHWVRQVPGQGLQWMGWISHEGDKKVIVERFKAKVTIDWDRSTNTAYLQLSGLTSEDTAVYYCAKGSKHRLRDYALYDEDGALNWAVDVDYLANLEFWGQGTAVTVSS
VL: DIVLTQSPLSLSVTPGESASISCKSSQSLIHGDRNNYLAWYVQKPGRSPQLLIDLASERASGVPDRFSGSGSRKDFTLKISRVETEDVGTYYCMQGRESPWTFGQGTKVDIK
B2: PGDM1400 (antibody, V domains shown)
VH: B1 VH with A2V, Q3H, V5T, N24A, T30K, Q39S, E89G, E112D, A126S
VL: B1 VL with I2F, L9H, Q27H, D54Y, E58S, R73D
B3: ePGDM5 (antibody, V domains shown)
VH: B1 VH
VL: B1 VL with I2F, S26D, Q27H, I30Q, S81D, T85A
B4: ePGDM13 (antibody, V domains shown)
VH: B1 VH
VL: B1 VL with Q27H, I30Q, I53L, R73E

How the values were obtained:
Assay in all cases: cell-based or functional assay
[1] = biological target: HIV Env, isolate 1012_11_TC21_3257 (HIV)
[2] = biological target: HIV Env, isolate 1054_07_TC4_1499 (HIV)
[3] = biological target: HIV Env, isolate 1056_10_TA11_1826 (HIV)
[4] = biological target: HIV Env, isolate QH0692.42 (HIV)
[5] = biological target: HIV Env, isolate TRJO4551.58 (HIV)
[6] = biological target: HIV Env, isolate CNE52 (HIV)
[7] = biological target: HIV Env, isolate CNE58 (HIV)
[8] = biological target: HIV Env, isolate 7030102001E5(Rev-) (HIV)
[9] = biological target: HIV Env, isolate CAP45.2.00.G3 (HIV)
[10] = biological target: HIV Env, isolate Ce1176_A3 (HIV)
[11] = biological target: HIV Env, isolate Ce704809221_1B3 (HIV)
[12] = biological target: HIV Env, isolate T263-8 (HIV)
[13] = biological target: HIV Env, isolate A07412M1.vrc12 (HIV)
[14] = biological target: HIV Env, isolate X1193_C1 (HIV)
[15] = biological target: HIV Env, isolate 62357_14_D3_4589 (HIV)

| Binder | IC80 (µg/ml) with constrains [1] [µg/mL] | IC80 (µg/ml) with constrains [2] [µg/mL] | IC80 (µg/ml) with constrains [3] [µg/mL] | IC80 (µg/ml) with constrains [4] [µg/mL] | IC80 (µg/ml) with constrains [5] [µg/mL] | IC80 (µg/ml) with constrains [6] [µg/mL] | IC80 (µg/ml) with constrains [7] [µg/mL] | IC80 (µg/ml) with constrains [8] [µg/mL] | IC80 (µg/ml) with constrains [9] [µg/mL] | IC80 (µg/ml) with constrains [10] [µg/mL] | IC80 (µg/ml) with constrains [11] [µg/mL] | IC80 (µg/ml) with constrains [12] [µg/mL] | IC80 (µg/ml) with constrains [13] [µg/mL] | IC80 (µg/ml) with constrains [14] [µg/mL] | IC80 (µg/ml) with constrains [15] [µg/mL] |
| --- | --- | --- | --- | --- | --- | --- | --- | --- | --- | --- | --- | --- | --- | --- | --- |
| B1 | 0.167 | > 100 | 3.61 | > 100 | > 100 | 7.39 | 0.008 | > 100 | 0.005 | 0.089 | 0.539 | 0.06 | 0.103 | 0.158 | 38 |
| B2 | 0.303 | > 100 | 13.5 | > 100 | > 100 | > 100 | 0.01 | > 100 | 0.005 | 2.1 | 1.28 | 0.081 | 0.115 | 0.374 | > 100 |
| B3 | 0.305 | > 100 | 3.57 | > 100 | > 100 | 24.6 | 0.015 | > 100 | 0.004 | 0.088 | 0.749 | 0.076 | 0.035 | 0.156 | 39.9 |
| B4 | 0.26 | > 100 | 6.03 | > 100 | > 100 | 11.3 | 0.014 | > 100 | 0.007 | 0.124 | 1.36 | 0.101 | 0.118 | 0.381 | 69.5 |
